Assay results from patent publication US20180291110A1 (Hoffmann-La Roche, published 2018).
Residue numbers refer to the chain shown, from its start. Names may count otherwise. Each block holds one binder with its values, some of them ahead of it.

Tests used:
[1] = biological target: T1, human transferrin receptor (recombinant, for surface plasmon resonance) (human, UniProt P02786 89-760); experiment: SPR 25C
T1 construct: also called huTfR; human transferrin receptor-biotinylated

[2] = biological target: T2, Her2 ECD (amino acids 1 to 629 of matured HER2 with C-terminal avi-tag and His-tag) (human, UniProt P04626 23-652); experiment: SPR, Ab captured, Her2 analyte;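 note: ProteOn XPR36 SPR, rate constants from simultaneous fit of association and dissociation sensorgrams to a 1:1 Langmuir model, buffer-channel referenced, KD taken as koff/kon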
T2 construct: also called purified Her2

[3] = biological target: T1, human transferrin receptor …; experiment: SPR

T1 sequence (P02786 89-760 limits assumed): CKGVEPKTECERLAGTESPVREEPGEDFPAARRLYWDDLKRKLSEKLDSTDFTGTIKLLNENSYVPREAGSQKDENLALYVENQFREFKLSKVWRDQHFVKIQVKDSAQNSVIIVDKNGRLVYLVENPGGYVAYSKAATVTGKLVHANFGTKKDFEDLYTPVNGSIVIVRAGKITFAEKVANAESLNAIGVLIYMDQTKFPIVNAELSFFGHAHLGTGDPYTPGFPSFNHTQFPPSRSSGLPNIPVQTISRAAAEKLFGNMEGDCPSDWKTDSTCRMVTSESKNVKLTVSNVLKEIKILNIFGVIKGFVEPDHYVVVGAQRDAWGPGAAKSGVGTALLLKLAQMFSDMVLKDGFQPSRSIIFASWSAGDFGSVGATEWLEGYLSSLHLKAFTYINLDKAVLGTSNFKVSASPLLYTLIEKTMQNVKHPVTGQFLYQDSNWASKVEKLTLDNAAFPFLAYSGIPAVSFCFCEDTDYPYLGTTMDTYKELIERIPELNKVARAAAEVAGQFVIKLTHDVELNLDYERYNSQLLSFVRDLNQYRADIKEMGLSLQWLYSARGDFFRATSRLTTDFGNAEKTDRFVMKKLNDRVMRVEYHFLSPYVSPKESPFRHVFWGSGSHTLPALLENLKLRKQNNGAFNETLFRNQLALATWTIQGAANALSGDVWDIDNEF

koff [1]: 0.00339 s⁻¹
B1: 2/99 VH13/VL17 (antibody, V domains shown)
VH: QVQLQESGPGLVKPSETLSLTCTVSGFSLSSYAMSWIRQPPGKGLEWIGYIWSGGSTDYNPSLKSRVTISVDTSKNQVSLKLSSVTAADTAVYYCARRYGTSYPDYGDANGFDPWGQGTLVTVSS
VL: AIQLTQSPSSLSASVGDRVTITCRASQSISSYLAWYQQKPGKAPKLLIYRASTLASGVPSRFSGSGSGTDFTLTISSLQPEDFATYYCQQTYSSSNVDNTFGGGTKVEIK

koff [1]: 0.00169 s⁻¹
B2: 2/99 VH15/VL17 (antibody, V domains shown)
VH: QQLQESGPGLVKPSETLSLTCTVSGFSLSSYAMSWVRQPPGKGLEWIGYIWSGGSTDYNPSLKSRVTISVDTSKNQVSLKLSSVTAADTAVYYCARRYGTSYPDYGDANGFDPWGQGTLVTVSS
VL: B1 VL

koff [1]: 0.000988 s⁻¹
B3: 2/99 VH17/VL17 (antibody, V domains shown)
VH: B2 VH with V70K, Q116P
VL: B1 VL

koff [1]: 0.000938 s⁻¹
B4: 2/99 VH22/VL17 (antibody, V domains shown)
VH: B2 VH with Q2S, L3M, E15Q, P39H, N59A, P60S, S61W, L62A
VL: B1 VL

koff [1]: 0.00457 s⁻¹
B5: 2/99 VH20/VL17 (antibody, V domains shown)
VH: B2 VH with Q2S, L3M, E15Q, V36I, P39H, N59A
VL: B1 VL

koff [1]: 0.00166 s⁻¹
B6: 2/99 VH16/VL17 (antibody, V domains shown)
VH: B2 VH with Q116P
VL: B1 VL

koff [1]: 0.001 s⁻¹
B7: 2/99 VH19/VL17 (antibody, V domains shown)
VH: B2 VH with Q2S, L3M, E15Q, V36I, P39H, N59A, V77F
VL: B1 VL

koff [1]: 0.000997 s⁻¹
B8: 2/99 VH21/VL17 (antibody, V domains shown)
VH: B2 VH with Q2S, L3M, E15Q, V36I, P39H, N59A, P60S, S61W, L62A
VL: B1 VL

koff [1]: 0.0053 s⁻¹
B9: 2/99 VH18/VL17 (antibody, V domains shown)
VH: B1 VH with E16Q, P40H, N60A, V78F
VL: B1 VL

Kd [2]: 3.66 nM | koff [2]: 0.00187 s⁻¹ | kon [2]: 511000 M⁻¹ s⁻¹
B10: Pertuzumab HC x Pertuzumab (Tras.L3) G32A LC (antibody, V domains shown)
VH: EVQLVESGGGLVQPGGSLRLSCAASGFTFTDYTMDWVRQAPGKGLEWVADVNPNSGGSIYNQRFKGRFTLSVDRSKNTLYLQMNSLRAEDTAVYYCARNLGPSFYFDYWGQGTLVTVSS
VL: DIQMTQSPSSLSASVGDRVTITCKASQDVSIAVAWYQQKPGKAPKLLIYSASYRYTGVPSRFSGSGSGTDFTLTISSLQPEDFATYYCQQHYTTPPTFGQGTKVEIK

Kd [2]: 4.62 nM | koff [2]: 0.00211 s⁻¹ | kon [2]: 457000 M⁻¹ s⁻¹
B11: Pertuzumab HC x Pertuzumab (Tras.L3) K24R LC (antibody, V domains shown)
VH: B10 VH
VL: B10 VL with K24R, A32G

Kd [2]: 4.06 nM | koff [2]: 0.00175 s⁻¹ | kon [2]: 431000 M⁻¹ s⁻¹
B12: Pertuzumab HC x Pertuzumab (Tras.L3) I31T LC (antibody, V domains shown)
VH: B10 VH
VL: B10 VL with I31T, A32G

Kd [2]: 10.9 nM | koff [2]: 0.00558 s⁻¹ | kon [2]: 514000 M⁻¹ s⁻¹
B13: Trastuzumab HC x Pertuzumab (Tras.L3) G66R LC (antibody, V domains shown)
VH: not shown
VL: B10 VL with A32G, G66R

Kd [2]: 71.5 nM | koff [2]: 0.0297 s⁻¹ | kon [2]: 416000 M⁻¹ s⁻¹
B14: Trastuzumab HC x Pertuzumab (Tras.L3) R54L LC (antibody, V domains shown)
VH: not shown
VL: B10 VL with A32G, R54L

Kd [2]: 66.8 nM | koff [2]: 0.0252 s⁻¹ | kon [2]: 377000 M⁻¹ s⁻¹
B15: Trastuzumab HC x Pertuzumab (Tras.L3) K24R LC (antibody, V domains shown)
VH: not shown
VL: B10 VL with K24R, A32G

Kd [2]: 4.35 nM | koff [2]: 0.00192 s⁻¹ | kon [2]: 440000 M⁻¹ s⁻¹
B16: Pertuzumab HC x Pertuzumab (Tras.L3) I31V LC (antibody, V domains shown)
VH: B10 VH
VL: B10 VL with I31V, A32G

Kd [2]: 3.97 nM | koff [2]: 0.00268 s⁻¹ | kon [2]: 675000 M⁻¹ s⁻¹
B17: Trastuzumab HC x Pertuzumab (Tras.L3) G32A LC (antibody, V domains shown)
VH: not shown
VL: B10 VL

Kd [2]: 0.782 nM | koff [2]: 0.00063 s⁻¹ | kon [2]: 805000 M⁻¹ s⁻¹
B18: Pertuzumab HC x Pertuzumab (Tras.L3) T94Y LC (antibody, V domains shown)
VH: B10 VH
VL: B10 VL with A32G, T94Y

Kd [2]: 49.4 nM | koff [2]: 0.0232 s⁻¹ | kon [2]: 470000 M⁻¹ s⁻¹
B19: Trastuzumab HC x Pertuzumab (Tras.L3) T56S LC (antibody, V domains shown)
VH: not shown
VL: B10 VL with A32G, T56S

Kd [2]: 5.52 nM | koff [2]: 0.00245 s⁻¹ | kon [2]: 443000 M⁻¹ s⁻¹
B20: Pertuzumab HC x Pertuzumab (Tras.L3) T56S LC (antibody, V domains shown)
VH: B10 VH
VL: B10 VL with A32G, T56S

Kd [2]: 8.03 nM | koff [2]: 0.00254 s⁻¹ | kon [2]: 316000 M⁻¹ s⁻¹
B21: Pertuzumab HC x Pertuzumab (Tras.L3) Y53F LC (antibody, V domains shown)
VH: B10 VH
VL: B10 VL with A32G, Y53F

Kd [2]: 4.87 nM | koff [2]: 0.00226 s⁻¹ | kon [2]: 464000 M⁻¹ s⁻¹
B22: Pertuzumab HC x Pertuzumab (Tras.L3) R54L LC (antibody, V domains shown)
VH: B10 VH
VL: B10 VL with A32G, R54L

Kd [2]: 64.6 nM | koff [2]: 0.0256 s⁻¹ | kon [2]: 396000 M⁻¹ s⁻¹
B23: Trastuzumab HC x Pertuzumab (Tras.L3) S30N LC (antibody, V domains shown)
VH: not shown
VL: B10 VL with S30N, A32G

Kd [2]: 3.4 nM | koff [2]: 0.0018 s⁻¹ | kon [2]: 530000 M⁻¹ s⁻¹
B24: Pertuzumab HC x Pertuzumab (Tras.L3) S30N LC (antibody, V domains shown)
VH: B10 VH
VL: B10 VL with S30N, A32G

Kd [2]: 28 nM | koff [2]: 0.0116 s⁻¹ | kon [2]: 413000 M⁻¹ s⁻¹
B25: Trastuzumab HC x Pertuzumab (Tras.L3) I31V LC (antibody, V domains shown)
VH: not shown
VL: B10 VL with I31V, A32G

Kd [2]: 2.82 nM | koff [2]: 0.00097 s⁻¹ | kon [2]: 344000 M⁻¹ s⁻¹
B26: Pertuzumab HC x Pertuzumab (Tras.L3) P96Y LC (antibody, V domains shown)
VH: B10 VH
VL: B10 VL with A32G, P96Y

Kd [2]: 6.91 nM | koff [2]: 0.00247 s⁻¹ | kon [2]: 358000 M⁻¹ s⁻¹
B27: Pertuzumab HC x Pertuzumab (Tras.L3) G66R LC (antibody, V domains shown)
VH: B10 VH
VL: B10 VL with A32G, G66R

Kd [2]: 7.21 nM | koff [2]: 0.00341 s⁻¹ | kon [2]: 473000 M⁻¹ s⁻¹
B28: Trastuzumab HC x Pertuzumab (Tras.L3) I31T LC (antibody, V domains shown)
VH: not shown
VL: B10 VL with I31T, A32G

Kd [2]: 44.9 nM | koff [2]: 0.0171 s⁻¹ | kon [2]: 381000 M⁻¹ s⁻¹
B29: Trastuzumab HC x Pertuzumab (Tras.L3) Y53F LC (antibody, V domains shown)
VH: not shown
VL: B10 VL with A32G, Y53F

koff [3]: 0.000136 s⁻¹
B30: 4/94 murine VH / murine VL (antibody, V domains shown)
VH: EVQLQQSGAVLVKPGASVKLSCPASGFNIKDTYIHWVIQRPEQGLEWIGRIDPANGDTKCDPKFQVKATITADTSSNTAYLQLSSLTSEDTAVYFCVRDYLYPYYFDFWGQGTTLTVSS
VL: KIVMTQSPKSMSMSVGERVTLNCRASESVDTYVSWYQQKPEQSPELLIYGASNRYTGVPDRFTGSGSATDFTLTISSVQAEDLADYYCGQTYNYPLTFGAGTKLELKR
notes: 0 (mu) read as the murine parental domains of clone 4/94; also called 0 (mu) x 0 (mu)

koff [3]: 0.000339 s⁻¹
B31: 4/94 SEQ ID NO 196 / murine VL (antibody, V domains shown)
VH: QVQLVQSGAEVKKPGASVKVSCKASGFNIKDTYIHWVIQAPGQGLEWMGRIDPANGDTKSDPKFQGRVTITADTSTSTVYMELSSLRSEDTAVYYCVRDYLYPYYFDFWGQGTTVTVSS
VL: B30 VL

koff [3]: 0.000156 s⁻¹
B32: 4/94 murine VH / SEQ ID NO 207 (antibody, V domains shown)
VH: B30 VH
VL: KIVLTQSPGTLSLSPGERATLSCRASESVDTYVSWYQQKPGQAPRLLIYGASNRYTGVPDRFSGSGSGTDFTLTISRLEPEDFADYYCGQTYNYPLTFGQGTKLEI

koff [3]: 0.000137 s⁻¹
B33: 4/94 murine VH / SEQ ID NO 201 (antibody, V domains shown)
VH: B30 VH
VL: KIQMTQSPSSLSASVGDRVTITCRASESVDTYVSWYQQKPGKAPKLLIYGASNRYTGVPSRFSGSGSGTDFTLTISSLQPEDFADYYCGQTYNYPLTFGQGTKLEI

koff [3]: 0.000177 s⁻¹
B34: 4/94 murine VH / SEQ ID NO 209 (antibody, V domains shown)
VH: B30 VH
VL: B32 VL with V58I

koff [3]: 0.000364 s⁻¹
B35: 4/94 SEQ ID NO 195 / murine VL (antibody, V domains shown)
VH: B31 VH with D61A, G66V
VL: B30 VL

koff [3]: 0.00037 s⁻¹
B36: 4/94 SEQ ID NO 194 / murine VL (antibody, V domains shown)
VH: B31 VH with G66V
VL: B30 VL

koff [3]: 0.000148 s⁻¹
B37: 4/94 murine VH / SEQ ID NO 208 (antibody, V domains shown)
VH: B30 VH
VL: B32 VL with K1E
